± gives the half width of the 95% confidence interval.
How the values were obtained:
[1] = folding stability dG unfold (combined trypsin and chymotrypsin); higher = more stable
Outline: (§1)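 Only designs with AlphaFold2 dimer inter-PAE above 15 were retained; each was a mini-protein under 80 residues with no cysteine, in a PA-tagged cDNA display construct. After digestion with trypsin and chymotrypsin and sequencing, K50 was inferred by Bayesian fitting of counts, and unfolding free energy was derived per protease or combined against a sequence-predicted unfolded-state K50 and a shared folded-state K50.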

[2] = folding stability dG unfold from trypsin proteolysis; higher = more stable
Outline: as §1

[3] = folding stability dG unfold from chymotrypsin proteolysis; higher = more stable
Outline: as §1

Row | Sequence | folding stability dG unfold [1] [kcal/mol] | folding stability dG unfold [2] [kcal/mol] | folding stability dG unfold [3] [kcal/mol]
1 | SAGGSAGGGPPSPVQTSTTSFSVSGDSSVTNVTVVTLPDGSLLVETTVFPSSGGSVSSLSSIPASAGGSAGG [r6_670_JUSTAS] | 0.855 ± 0.058 | 1.27 ± 0.031 | 0.218 ± 0.21
2 | SAGGSAGGGRYLVLIEFENGFPLAYVFPSPEDVVEHTRLLEERLGYPIKRIEVYKIDPNGKAYASAGGSAGG [r6_162_TrMRF] | 2.53 ± 0.086 | 2.41 ± 0.053 | 2.42 ± 0.12
3 | SAGGSAGGGSFTLTEEPGGVLTITTPDKTLTVNLEGVTPDPNSDTTFSFTLSLDPDDSASVTSSSAGGSAGG [r6_202_JUSTAS] | 1.47 ± 0.1 | 1.44 ± 0.023 | 1.43 ± 0.091
4 | SAGGSAGGGTVLAEEEEPETGLVRRLVRLPDGTLVESVSLVDPETGEVLSEEVLRETPLPPPGLSAGGSAGG [r6_928_JUSTAS] | 1.29 ± 0.12 | 0.898 ± 0.08 | 1.41 ± 0.054
5 | SAGGSAGGIEITEISRSEELLKLDVPEDTLVLKVKHPDGKEIEVTFPANIPIEEAKEKAKEFVESAGGSAGG [r6_986_TrMRF] | -0.188 ± 0.18 | -0.248 ± 0.079 | -0.176 ± 0.15
6 | SAGGSAGGIKELLEALGFEVVDVEPTDNKFMIMIRNPEEGRVVVIEIEWDGPPKIEIHPMPPNASAGGSAGG [r6_195_TrROS] | 2.31 ± 0.13 | 2.38 ± 0.065 | 2.11 ± 0.04
7 | SAGGSAGGIYIFFPPEDLEPIAPFTITIEVKRRDPDGDEPQPRKQTIPIRIYRAPNNNLMIEPGSAGGSAGG [r6_278_TrROS] | 0.881 ± 0.087 | 0.742 ± 0.11 | 0.919 ± 0.19
8 | SAGGSAGGKAEKITLEIPNTGKKVEIIKPENKAIITVYDKNGKPIKTIVVPPNFPGIEDAVKADSAGGSAGG [r6_424_TrMRF] | 0.434 ± 0.12 | -0.267 ± 0.068 | 0.773 ± 0.061
9 | SAGGSAGGKETKTITMIIKVKDENGKELKAGDKVEIEINGKKITIEVTYNKKTGYLVVKATIKPSAGGSAGG [r6_657_TrROS_Hall] | 3.37 ± 0.17 | 2.47 ± 0.096 | 3.87 ± 0.11
10 | SAGGSAGGKEVYKIKVKNAEIVDFDEETGELTIKLKETGKEIKIPLKAIKKIEITDDYIYIYVESAGGSAGG [r6_313_TrROS_Hall] | 4.15 ± 0.17 | 3.64 ± 0.25 | 4.21 ± 0.13
11 | SAGGSAGGKIDLKDLKIVKIETVKNENGETFYRVVIEVDGKKIVLTVPENMSLEELLKKLKELSSAGGSAGG [r6_232_TrROS_Hall] | 4.07 ± 0.081 | 3.36 ± 0.13 | 4.22 ± 0.055
12 | SAGGSAGGKIKLDGKEIVIVMSKEEKEKIAKELKEKFPNVKIKVVEGMSEEEAAKKADLVIVFDSAGGSAGG [r6_679_TrROS_Hall] | -0.269 ± 0.39 | -0.142 ± 0.18 | 0.0544 ± 0.23
13 | SAGGSAGGKIKPGEKVKVKVKIKNKNGEVFEATATVVDGKIFIEVDGKIYEISADDIEEIEVEPSAGGSAGG [r6_132_TrROS_Hall] | 2.37 ± 0.22 | 1.47 ± 0.042 | 2.92 ± 0.099
14 | SAGGSAGGKIKVEIEYNGEKKEMTLDEIKALLKKNLPPNATIRVKKNGKTIPLKKVKVKKLKKKSAGGSAGG [r6_936_TrROS_Hall] | 1.35 ± 0.18 | 1.08 ± 0.069 | 1.65 ± 0.15
15 | SAGGSAGGKIKVEYNPENNMYRVTIKLPGGKIKIYIPPGQTEEQGEKNVKHMAKELLKKNGIKISAGGSAGG [r6_679_TrROS] | 1.17 ± 0.44 | -0.0228 ± 0.46 | 1.47 ± 0.14
16 | SAGGSAGGKIPPNMEIEPWRFGGKPYFLIRMPNGSYQVFEFKGDKLKIKETIPVPPGDWILIKFSAGGSAGG [r6_476_TrROS] | 1.81 ± 0.14 | 1.48 ± 0.04 | 1.98 ± 0.16
17 | SAGGSAGGKITITLPGAEIVSVEESEDGKTITITVRLENGELLKITLKRVNGKWYITKIELLKPSAGGSAGG [r6_718_TrROS_Hall] | 4.34 ± 0.068 | 3.54 ± 0.086 | 4.524 ± 0.038
18 | SAGGSAGGKKFKPGQVVLDPKTKELYVIKGEVTVKEDGSLSIKVEKVKLPKPKKLTKEQLEKLKSAGGSAGG [r6_771_TrROS_Hall] | 0.783 ± 0.16 | 0.687 ± 0.067 | 0.613 ± 0.23

Row | Sequence | folding stability dG unfold [1] [kcal/mol] | folding stability dG unfold [2] [kcal/mol] | folding stability dG unfold [3] [kcal/mol]
19 | SAGGSAGGKKIRIRIPLPDGTWVEVEVYFSEDGIYSFYIPPTGKLVLIDVGENGIKITIIDLPPSAGGSAGG [r6_58_TrMRF] | 4.38 ± 0.43 | 4.1 ± 0.32 | 4.47 ± 0.27
20 | SAGGSAGGKKKKKKKKKYYTFVLKVKEKDLTPEEIKKLFPNVKIEKKDGYLVITVKVNGKEIKFSAGGSAGG [r6_738_TrROS_Hall] | 2.11 ± 0.31 | 1.43 ± 0.19 | 2.66 ± 0.12
21 | SAGGSAGGKKKVLILPKGKKKEYTIEEAKKILKEKLPENAKVRLLETGKEYPVKDLLKKLGIDLSAGGSAGG [r6_936_TrMRF] | -0.207 ± 0.45 | -0.276 ± 0.28 | -0.411 ± 0.65
22 | SAGGSAGGKKKVLLVKVEIELPNGEKLELVAESEEEALEALKKLLEKKGLKIKKVEIVELEEKESAGGSAGG [r6_405_TrROS_Hall] | 2.17 ± 0.077 | 1.64 ± 0.071 | 2.41 ± 0.051
23 | SAGGSAGGKKTVEIEMTVDELLAALKSLSEEELKNVKIIGKDGKEFTLEDLEKNPGKIYKIEVKSAGGSAGG [r6_428_TrROS_Hall] | 1.82 ± 0.16 | 0.694 ± 0.07 | 2.23 ± 0.074
24 | SAGGSAGGKKVYEIKGLTPEQIRALVKENKGKVTIYYKDGKKEEKTIKEGDEIAPGETVYIEVESAGGSAGG [r6_303_TrROS_Hall] | 1.56 ± 0.21 | 0.858 ± 0.11 | 1.74 ± 0.13
25 | SAGGSAGGKLENLPENVTEVRIEKNENGEYTIYVRNKETNEYVKLKVEKKDGEWKIVEKEVFPKSAGGSAGG [r6_937_TrROS_Hall] | 2.74 ± 0.26 | 2.09 ± 0.12 | 3.02 ± 0.047
26 | SAGGSAGGKLPKNIEKIEFNKKTNIIKVKVKSLEDLKKLAEKLNFEIVSVEEKDGYIYIKIKKKSAGGSAGG [r6_380_TrROS_Hall] | 2.47 ± 0.081 | 1.86 ± 0.038 | 2.796 ± 0.027
27 | SAGGSAGGKLVLKIKIYNKKTKKVYEFEIEADSLEELKEALKKLGLPKDVKIVSVELRPLDEEPSAGGSAGG [r6_23_TrROS_Hall] | 4.79 ± 0.092 | 3.65 ± 0.1 | 4.96 ± 0.075
28 | SAGGSAGGKNWRTIPFMIWIPPGAPPIEFEIPLPDGWKVEIEISVVRNPDGWYFIMFSITVQPDSAGGSAGG [r6_510_TrROS] | 3.81 ± 0.22 | 3.12 ± 0.28 | 3.85 ± 0.17
29 | SAGGSAGGKPKPVLRTFEVRDPATGELYKVELVVLDDGSVRALVTRRDGRKREFTFDAPASLILSAGGSAGG [r6_588_TrMRF] | 1.88 ± 0.047 | 1.59 ± 0.019 | 2.08 ± 0.042
30 | SAGGSAGGKRKIEIHIIIPPGMPPEWRKKAIEIAKWFAKTLAQENNREVEIKIEIFVLDGMPPWSAGGSAGG [r6_204_TrROS] | 3.6 ± 0.33 | 2.82 ± 0.19 | 3.71 ± 0.076
31 | SAGGSAGGKRTVQIQFPMGPQWLDKLRDAFPNVDIEELEYDEGPGWHRIKIKVDSPEKIRDFIKSAGGSAGG [r6_334_TrROS] | 0.991 ± 0.18 | 0.63 ± 0.19 | 1.41 ± 0.079
32 | SAGGSAGGKTISIPGSIEEIQEKLGGPIDEVEHNKPGSGSYKPKNGKPITIHFDSPEDILDFFKSAGGSAGG [r6_19_TrROS] | 0.206 ± 0.12 | 0.318 ± 0.032 | -0.0753 ± 0.15
33 | SAGGSAGGKTIVIDMSIEEIAKKLGLEIVEVKKNKDGSVTITLKNGKKITIKVKSPEDLLKAIKSAGGSAGG [r6_13_TrROS_Hall] | 2.54 ± 0.29 | 1.65 ± 0.11 | 3.03 ± 0.15
34 | SAGGSAGGKTYIVKIVVKNKNGEELELTLEVETEEEAKEAAEELAKKLEEAGYEIVKVEIKKLPSAGGSAGG [r6_869_TrROS_Hall] | 4.02 ± 0.2 | 3.64 ± 0.27 | 4.11 ± 0.14
35 | SAGGSAGGKVKFEIPNAKITSVEYDPNPGLLKVEFELPNGLKLTAIFKIDKDKAILAKIEISPESAGGSAGG [r6_718_TrMRF] | 3.23 ± 0.081 | 2.57 ± 0.071 | 3.51 ± 0.045
36 | SAGGSAGGLEIAKELGFEKIEIEEVKENRVVLKLKDKNGKEYKIEFEFDPETGEIKILKIEPLPSAGGSAGG [r6_526_TrMRF] | 4.12 ± 0.13 | 3.1 ± 0.21 | 4.19 ± 0.1
